The supplement of paper PMC11908140

B1: library; numbered along this chain (parent)
chain: MRKPRAAVGSGHRKQAASQEGRQKHAKNNSQAKPSACDGLARQPEEVVLQASVSSYHLFRDVAEVTAFRGSLLSWYDQEKRDLPWRRRAEDEMDLDRRAYAVWVSEVMLQQTQVATVINYYTGWMQKWPTLQDLASASLEEVNQLWAGLGYYSRGRRLQEGARKVVEELGGHMPRTAETLQQLLPGVGRYTAGAIASIAFGQATGVVDGNVARVLCRVRAIGADPSSTLVSQQLWGLAQQLVDPARPGDFNQAAMELGATVCTPQRPLCSQCPVESLCRARQRVEQEQLLASGSLSGSPDVEECAPNTGQCHLCLPPSEPWDQTLGVVNFPRKASRKPPREESSATCVLEQPGALGAQILLVQRPNSGLLAGLWEFPSVTWEPSEQLQRKALLQELQRWAGPLPATHLRHLGEVVHTFSHIKLTYQVYGLALEGQTPVTTVPPGARWLTQEEFHTAAVSTAMKKVFRVYQGQQPGTCMGSKRSQVSSPCSRKKPRMGQQVLDNFFRSHISTDAHSLNSAAQ

Variants of: B1
Assay: 8OG:A repair function score (normalized; synonymous = 0, nonsense = -1) (normalized log-likelihood score); higher = more repair activity (WT-like)
Conditions: with 8OG:A DNA repair reporter (GFP) in HEK-293 MUTYH KO cells
Protocol: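 Saturation mutagenesis (NNN codon scan) of the MUTYH cDNA (521-aa nuclear isoform NM_001048174.1 / NP_001041639), stably expressed under doxycycline induction in HEK-293 MUTYH knockout cells. Cells were co-transfected with an 8OG:A-bearing GFP repair reporter plus mCherry and sorted 72 h later into GFP+ and GFP− bins, three replicates per tile. The Rosace log2 enrichment (GFP+ vs GFP−) was converted per tile to a normalized function score with synonymous variants centered at 0 and nonsense variants (codons 1-471) at -1; low-abundance variants were removed.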

8OG:A repair function score: each site, then its substitutions
G170: W -0.239, Y -0.062, V -0.31, Q 0.0993, K -0.0295, F -0.166, C -0.00944, N 0.0595, M -0.0605, R -0.0153, H 0.094, D 0.0788, P -0.872, S 0.00875, T -0.248, I -0.395, L -0.232, E -0.0272
K164: V 0.027, I 0.0586, N -0.37, E -0.382, W -0.0721, M 0.168, F 0.104, D -0.483, R -0.0158, L 0.0383, Q -0.101, P -1.12, S -0.168, T -0.103, Y -0.0367, A -0.133, G -0.431, H -0.186, C -0.21
M173: N -0.945, E -1.13, S -0.859, H -0.672, T -0.402, C -0.257, G -0.965, D -0.926, F -0.014, Q -0.93, Y -0.366, L -0.00175, I 0.0625, R -1.15, V -0.0935, K -0.971, P -0.654, W -0.276, A -0.537
V166: M -0.0629, G -0.466, R -0.182, T -0.155, P -0.858, E -0.327, N -0.124, Y -0.184, D -0.293, K -0.116, A -0.1, F -0.0998, I 0.0212, L -0.161, W 0.0741, H -0.183, S -0.0616, C 0.0203, Q -0.0914
A162: Q -0.953, S -0.159, C -0.175, H -1.08, P -1.19, W -0.917, I -0.523, T -0.155, L -1, E -1.14, R -1.02, D -1.2, K -1.03, G -0.456, F -1.26, Y -1.22, N -0.917, M -0.887, V -0.278
G161: Y -1.04, M -0.776, C -0.293, H -1.12, S -0.13, E -0.898, V -0.579, P -0.919, L -1.01, Q -0.911, K -1.07, W -1.19, F -1.03, I -0.841, R -1.15, D -0.688, N -0.325, T -0.317
G171: C -0.239, H -0.42, S -0.267, P -1.16, N -0.204, Y -0.628, V -0.443, M -0.536, E -0.526, L -0.605, R -0.577, F -0.571, T -0.321, W -0.633, Q -0.338, K -0.84, I -0.703, D -0.296, A -0.18
V165: H -1.11, S -0.732, Y -1.15, L -0.0671, C -0.0561, P -1.08, Q -0.882, T -0.312, M -0.283, G -0.877, K -1.13, W -0.957, A -0.341, D -0.91, N -1.08, F -0.802, E -1.11, I -0.0615, R -1.07
R163: L -0.128, A -0.182, F -0.174, S -0.122, P -0.887, V -0.0917, C -0.00395, W -0.296, N -0.164, M -0.0916, D -0.387, I -0.115, E -0.375, Q -0.143, K -0.132, H -0.238, G -0.378, Y -0.137, T -0.128
P174: C -0.583, H -0.972, K -0.797, E -0.932, L -0.947, W -1.14, T -0.922, D -0.922, V -0.797, S -0.753, Q -0.827, M -0.732, I -0.9, G -0.814, N -0.958, F -0.961, R -0.877, Y -0.958, A -0.706
E168: Q 0.0147, N 0.0349, A -0.135, C 0.0112, R -0.0574, H -0.103, L -0.0373, T -0.0102, D -0.0557, G -0.24, P -0.661, F -0.102, K -0.00268, M -0.0593, V -0.0341, Y -0.173, S -0.0595, I -0.134, W -0.201
L169: C -0.0691, A -0.177, R -0.105, K -0.189, S -0.284, P -0.645, D -0.386, W -0.0366, N -0.172, G -0.273, Q -0.00403, V -0.409, T -0.186, E -0.261, I -0.337, F -0.0235, Y -0.104, M 0.0203, H -0.0549
E178: H -0.0501, G -0.126, K 0.0383, L -0.106, P -0.125, M 0.0407, C -0.0388, I -0.0162, D -0.000297, F -0.0911, A 0.0541, N 0.0803, Q -0.0318
E167: D 0.018, R -0.0147, K 0.0784, Y 0.0239, P -0.768, W -0.0936, S -0.0659, C -0.0723, H -0.0317, I -0.0169, Q 0.141, G 0.00335, F 0.0154, M -0.0528, A -0.18, V -0.0209, L 0.00804, T 0.067, N 0.0307
T176: I -0.31, L -0.174, A -0.251, S -0.0317, D 0.00933, K -0.0846, R -0.102, Q -0.0945, C -0.0512, V -0.285, Y -0.16, N 0.0341, G -0.216, E -0.128, W -0.419, M -0.28, F -0.157, H -0.0301, P -0.429
H172: C -0.0393, E 0.017, I -0.0329, V 0.0577, F -0.0443, Y -0.0294, M 0.0264, N -0.0786, D -0.0948, A -0.0729, G -0.216, P -0.512, T 0.0683, W -0.21, S 0.0204, L -0.0966, R -0.0155, K 0.118, Q 0.0285
R175: V -0.148, G -0.166, P -0.229, I -0.189, C -0.0695, H -0.116, E 0.0279, A -0.0909, L -0.252, M -0.155, K -0.133, F -0.197, T -0.00924, D -0.192, W -0.356, S -0.0258, N -0.0345, Q 0.0309, Y -0.175
A177: V -0.207, W -0.324, R -0.127, L -0.213, T -0.226, K -0.0185, P -0.0959, G -0.166, Y -0.194, S -0.1, N -0.0568, H -0.14, I -0.142, M -0.0819, C -0.0436, E -0.368, Q -0.125, F -0.273, D -0.363
